Assay: Stability study of the conjugate in phosphate-buffered saline
Format: physicochemical
Details: 37° C.
Method: A stability study confirmed that the conjugate 4a is stable in phosphate-buffered saline (PBS) at least for 8 hours at 37° C., which is stable enough for PET applications.

For `N[C@@H](CCC(=O)N[C@@H](CSC1CC(=O)N(CCCCCCON=C[C@H](O)[C@H](O)[C@H](O)CF)C1=O)C(=O)NCC(=O)O)C(=O)O` (stereo partly shown) [conjugate 4a], the “stable in phosphate-buffered saline (PBS)” value was ≥ 8 h.

Reference: US9669118B2, “Method of labelling a biologically active molecule with 5-fluoro-5-deoxypentose or a 3-fluoro-3-deoxypentose” (UNIVERSITY COURT OF THE UNIVERSITY OF ST. ANDREWS, priority 2011, dated 2017)
